Results as given in the nanobody polyreactivity screen of Harvey et al. (2022).

Assay: yeast display, Sf9 membrane polyspecificity reagent, FACS + sequencing; frameworks hold sequencing errors
Outline: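 Galactose-induced (36–48 hours) yeast carrying a synthetic nanobody display library were exposed to 10% biotinylated, detergent-solubilized Sf9 membrane reagent at 4 °C for 1 hour. FACS followed streptavidin microbead enrichment, using low and high (top ~1%) gates for expression (anti-HA) and reagent binding (streptavidin). Colony PCR, MiSeq 2 × 250 sequencing and CDR-length filtering followed. Labels for polyreactivity reflect the gate of origin.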

Sequence: QVQLVESGGGLVQAGGSLRLSCADSGRTFGRNVMGWYRQAPGKERELVASITRSGGSTYYADSVKGRFTISRDTAKNTVYLEMNSLKPEDTAVYYCAKCYYLWCSYWGPSQYDWGQGSQVTVSS
- polyreactivity (PSR sort gate): high polyreactivity

Sequence: QVQLVESGGGLVQAGGSLRLSCAASGFIFRTYAMGWYRQEPGKERELVAAITYSAGSTYYADSVKGRFTISRDNAKNTVYLQMNSLKPEDTADYYCNVRKTWYGYSVTGRYDYWGQGTQVTVSS
- polyreactivity (PSR sort gate): low polyreactivity

Sequence: QVQLVESGGGLVQAGGSLRLSCAASGRTFNYYAMGWYRQAPGKERELVAAISWSGTPTYYADSVKGRFTISRDNAKNTVYLQMNCLKPEDTAVYYCAAYLVSYPRGNYIRYDYWGQGTQVTVSS
- polyreactivity (PSR sort gate): low polyreactivity

Sequence: QVQLVESGGGLVQAGGSLRLSCAASGSIFAINAMGWDRQAPGKERELVAAITRGGSTYADSVKGRFTISRDNAKNTVYLQINSLKPEDTAVYYCAARWYRRGNGFNYWGQCTQVTVSS
- polyreactivity (PSR sort gate): high polyreactivity

Sequence: QVQLVESGGGLVQAGGSLRLSCAASGRIFSAYAMGWFRQAPGKERELLAAISKRGGRTYYADSVKGRFTISRDNATNTVYLQTNSLKPEDTSVYYCNKRYLDGHDLDYCGQGTQVTVSS
- polyreactivity (PSR sort gate): high polyreactivity

Sequence: QVQLVESGGGLVQAGGSLRLSCAASGRTFLWYAMGWYRQAPGKERELVAAIRWRGTSTYYADSVKGRFTISRDNAKNTVYLQMNSLKPEDTAVYYCAAKVRSLYWFDYWGQGTQVTVSS
- polyreactivity (PSR sort gate): high polyreactivity

Sequence: QVQLVESGGGLVQAGGSLRLSCAASGLTFASNAMGWYRQAPGKERELVAAISWSDGSTYYADSVKGRFTISRDNAKNTVYLQMNSLKPEDTAVYYCAAEPPGFRTSRVGYWGQGTQVTVSS
- polyreactivity (PSR sort gate): low polyreactivity

Sequence: QVQLVESGGGLVQAGGSLRLSCAASGIIFQSYTMGWYRQAPGKERELVAAIDSGGSTYYADSVKGRFTISRDNAKNTVYLQMNSLKPEDTAVYYCAAEPDTYWYTYDYWGQGTQVTVSS
- polyreactivity (PSR sort gate): low polyreactivity

Sequence: QVQLVETGGGLVQAGGSLSLSCAASGYIFEINAKGWYRQAPGKERELVADIRRGDSTNYADSVKGRFTISRDNSMNTVYLQMNSLKPEDTAVYYCAAYHRLFDYDYCGQGTQVTVSS
- polyreactivity (PSR sort gate): high polyreactivity

Sequence: QVQLVESGGGLVQAGGSLRLSCAASGSIFEGNGMGWYRQAPGKERELVAAITFRSGSTYYADSVKGRFTISRDNAKNTVYLLMNSLKPADTAVYYCAAHESYQVSAYDYWGQGSQVTVSS
- polyreactivity (PSR sort gate): low polyreactivity

Sequence: QVQLVESGGGLVQAGGSLRLSCAASGSIFYRYAMGWYRQAPGKERELVATIRSGGSTNYADSVKGRFTISRDNAKNTVYLQMKSLKPEDTAVYYCAAVTPETQPDSGPVPPMDSWGQGTQVTVSS
- polyreactivity (PSR sort gate): low polyreactivity

Sequence: QVQLVESGGGLVQAGGSLRLSCAASGLIFGRNVMGWYRQAPGKERELVAAISWSGGRTYYADSVKGRFTISRDNAKNTVYLQMNSLKPEDTAVYYCAADDGPGFDYWGQGTQVTVSS
- polyreactivity (PSR sort gate): high polyreactivity

Sequence: QVQLVESGGGLVQAGGSLRLSCAASGSIFFINAMGWYRQAPGKERELVADITSGGGTYYADSVKGRFTISRDNAKNTVYLQMNSLKPVDTAVYYCAKEYGFTGYGYWGQCTQVTVSS
- polyreactivity (PSR sort gate): low polyreactivity

Sequence: QVQLVESGGGLVQAGGRLRLSCAASGSISQTNAMGWYRKAPGKERELVAAISGSGGSTYADSVKGRFTISRDNAKNTVYLQMNSLKPEDTAVYYCARDRYYTREWYWYRHDHWGQGTQVTVSS
- polyreactivity (PSR sort gate): low polyreactivity

Sequence: QVQLVESGGGVVQAGGSLRLSCAASGFTFAYYATGWYRQAPGKERELVAAISRSGGSTYYADSVKGRFTISRDNAKNTVYLHMNSLKPEDTAVYYCARDQRKLGADFDSWGQRTQVTVSS
- polyreactivity (PSR sort gate): high polyreactivity

Sequence: QVQLVESGGGLVQAGGSLRLSCAASGTTFPKYAMGWYRQAPGKERELVAAITRGGRTYYADSVKGRFTISRDNANNTVYLQMNSLKPEDTAVYYCAVVGYARVGMYDYWGQGSQVTVSS
- polyreactivity (PSR sort gate): high polyreactivity

Sequence: QVQLVESGGGLVQAGGSLRLSCAASGSISGVYAMGWYRQAPGKERELVAAISRSGGSTYYADSVKGRFTISRDNAKNTVYLQMNSLKPEDTAVYYCAAEYTYYSYGGNYDYWGQGTQVSVSS
- polyreactivity (PSR sort gate): low polyreactivity

Sequence: QVQLVESGGGLVQAGGSLRLSCAASGLTIYHYSMGCYRQAPGKERELGAAISGNGVSTYYADSVKGRFTISRDNAKNTVYLQMNSLNPEDTAVYYCNVVFRFNSFDFYYWGLGTQVTVSS
- polyreactivity (PSR sort gate): high polyreactivity

Sequence: QVQLVESGGGLVQAGGSLRLSCAASGFIFAINAMGWYRQAPGKEREFVAAISSDGASTYYADSVKGRFTISRDNAKNTVYFQMNSLKPEDTAVYYCNAVPYEWTYPYEYYYWGQGTQVTVSS
- polyreactivity (PSR sort gate): low polyreactivity

Sequence: QVQLVESGGGLVQAGGSHRLSCAASGGTFNSNAMGWYRQAPGKERELVASITWRGGTYYADSVKGRFTISRDNAKNTVYLQMNSLKPEDTAVYYCAARGTIPGIHWIYYYWGQGTQVTVSS
- polyreactivity (PSR sort gate): high polyreactivity

Sequence: QVQLVESGGGLVQAGGSLRLSCAASGSIFNQYAMGWYRQAPGKERELVAAISSGSTYYADSVKGRFIISRDNAETTVYLQMYSLKPEDTAVYYCNAYYVNYVSNYESWGQGTQVTVSS
- polyreactivity (PSR sort gate): high polyreactivity

Sequence: QVQLVESGGGLVQAGGSLRLSCAPSGSILGSNAMGGYRQAPGKERELVAAITSSGGSTYYADSVKGRFTISRDNAKNTVYLQMNSLKPEDTAVYYCNADATDSYPEKDYHDSWGQGTQVTVSS
- polyreactivity (PSR sort gate): low polyreactivity

Sequence: QVKLVESGGGLVQAGGSLRLSCAASGSIFYYYAMGWYREAPGKERELVAAISYGGGSTYYADSVKGRFTISRDNAKNTVYLQMNSLKPEDTAVYYCAVQEVVGWYLYDYWGHGTQVTVSS
- polyreactivity (PSR sort gate): high polyreactivity

Sequence: QVQLVESGGGLVQAGGSLRLSCAASGFIFQPYSLGWYRQAPGKERELVAAITSRGGRTYYADSVKGRFTISRDNAKNTVYLQMNSLKPEDTAVYYCNADIYASEYYYWGQGTQVTVSS
- polyreactivity (PSR sort gate): low polyreactivity

Sequence: QVQLVESGGGLVQAGGSLRLSCAASGSILYWYAMGWYRQAPGKERELVAGIDWSGGSTYYADSVKGRFTISRDNAKNTVYLQMNSLKPEDTAVYYCNAVQNRGRGSHRGESTYYYWGQGTQVTVSS
- polyreactivity (PSR sort gate): low polyreactivity

Sequence: QVQLVESGGGLVQAGGSLRLSCAASGSISRVYAMGWYRAAPGKERELVASISRSGGSTYYADSVKGRFTISRDNAKNTVYLQRNSLKPEDTAVYYCAKASKGQYRFDYWGQGTQVTVSS
- polyreactivity (PSR sort gate): low polyreactivity

Sequence: QVQLVESGGGLVQAGGRLRLSCAASGSTFSWYVMGWYRQAPGKERELVAAITRGGGSTYYADSVKGRFTISRDNAKNTVYLQMNSLKPEDTAVYYCNADSNIPDYDYWGQGTQVTVSS
- polyreactivity (PSR sort gate): low polyreactivity

Sequence: QVQLVESGGGLVQAVGSLRLSCAASGLTFYSNAMGWYRQAPGKERELVATISQDGGRTYYADSVKGRFTISRDNAKNTVYLQMNSLKPEDTAVYYCAKDLYHTVGRYDYWGQGTQVTVSS
- polyreactivity (PSR sort gate): low polyreactivity

Sequence: QVQLVESGGGLVQAGGSLRLSCAASGSIFVANAMGWYRQAPGKERELVAAISASGVTTYYADSVKGRFTISRDNAKNTVYLQMNSLKPEDTAVYYCNADYGSDDDVVRYDYWGQGTQVTVSS
- polyreactivity (PSR sort gate): low polyreactivity

Sequence: QVQHVESGGGLVQAGGSLRLSCAASGRTFTPYAMGWYRQAPGKEREFVAAISIVGRTKYADSVKGRFTISRDNAKNTVYLQMNSLKPEDTAVYYCNAQDSRDRKFYWGYTRGHWGQGTQVTVSS
- polyreactivity (PSR sort gate): low polyreactivity

Sequence: QVQLVESGGGLVQAGGSLRLSCAASGRIFPWYTMGWYRQAPGKERELVAVISSGGRTHYADSVKGRFTISRDNAKNTVYLQMNSLKPEDTAVYYCAAESRYQRYDYWGQGTQVTVSS
- polyreactivity (PSR sort gate): high polyreactivity

Sequence: QVQLVESGGGLVQAGGSLRLSCAASGFTFARNAMGWYRQAPGKERELVASITSGGSTNYADSVKGRFTISRDNAKNTVYLQMNSVKPEDSAVYYCNALWWAPGRPGEEIYRILDYWGQGTQVTVSS
- polyreactivity (PSR sort gate): low polyreactivity

Sequence: QVQLVESGGGLVPAGGSLRLSCAASGLTFGRYAMRSYRQAPGKEREMVARISRSGGRTYYADSVKGRFTISRDNAKNTVYLQMNSLKPEDTAVYYCAATGSYYGGDHDYWGQGTQVTVSS
- polyreactivity (PSR sort gate): high polyreactivity

Sequence: QVQLEESGGGLVQAGRSLRLSCAASGRTFIRNAMGRYRHAPGQQRELVAAISSRGGRTYYADSVKGRFTISRDNAKTTVSLEMNSLKPEDTAVYYCAADFTYKLDGYDYWGQGSQVTVSS
- polyreactivity (PSR sort gate): high polyreactivity

Sequence: QVQLVESGGGLVQAGGSLRLSCAASGSIFFYYAMGWYRQAPGKERELVADITSGGTTYYADSVKGRFTISRDNAKNTVYLQMNSQKPEDTAVYYCNAGLYPGQRPDYTNYSSYYWGQGTQVTVSS
- polyreactivity (PSR sort gate): low polyreactivity

Sequence: QVQLVESGGGLVQAGGSLRISCAASGRTFFGNAMGWYRQAPGKERELGASISTRGGSTYYADSVKGRFTISRDNAKNTVYLQINSLKPADTAVYDCAAPSQSRGYYYWGQGTQVNVSS
- polyreactivity (PSR sort gate): high polyreactivity

Sequence: QVQLVESGGGLVQAGGSLRLSCAASGSIFPYYTMGGYRQAPGKERELVAVISSGGSTNYAVSVKGRFTISRDNAKNTVYLQMNSLKPEDTAVYYCNARRYWLRYDYWGLGTQVTVSS
- polyreactivity (PSR sort gate): low polyreactivity

Sequence: QVQLVESGGGLVQAGGSLRLSCAASGRTFPYNAMGWYRQAPGKERELVAAITWSGGSTYYADSVKGRFTISRDNAKNTVYLQMNSLKPEDTAVYYCNKDFPVFEYDYWGQGTQVTVSS
- polyreactivity (PSR sort gate): low polyreactivity

Sequence: QVQLVESGGGLVQAGGSLRLSCAASGSTFTLYARGWYRQAPGKERELVATITGSGGSTNYADSVKGRFTISRDNAKNTVYLQMNSLKPEDTAVYYCAADYAVYSFTEFNYWGQGTQVTVSS
- polyreactivity (PSR sort gate): high polyreactivity

Sequence: QVHLVESGGGLVQAGGGLRLSSAASGFIFSPNAMGWYRQAPGKEREYVAAISYSGTSTSYADSVKGRFTISRDNAKNTVYLQMNSLKPEDTAVYYCAAGRSNSYSPRRRVTYGYNYWGQGTQVTVSS
- polyreactivity (PSR sort gate): high polyreactivity

Sequence: QVQLVESGGGLVQAGGSLRLSCAASGRIVVPYAMGWYRQAPGKERELVAAITSGGSTYYADSVKGRFTISRDNAKNTVYLQMNSLKPEDTAVYYCAATSRRSSETYYFWGQGTQVTVSS
- polyreactivity (PSR sort gate): high polyreactivity

Sequence: QVLLVESGGGLVQAGGSLRLSCAPSGRTVDSYAMGWYRQAPGKETELVAAIDWGGGTTYYADSVKGRFRISRDNAKNSVYLQMNSLKPEDTAVYYCAAGDVWIAPYDSWGQGTQVTVSS
- polyreactivity (PSR sort gate): low polyreactivity

Sequence: QVHLVESGGGLVQARGTRRLSCAASGYTFPRYTMGWYRQAPGKERELVAAISGSSGSTYYADSVTGRFTISRDNATNTVYLQLNSLKPEDTAVYYCNKYYGFHKIKEYDYWGQGTQGTVSS
- polyreactivity (PSR sort gate): high polyreactivity
